Target: OsBOR3_(∆1–642) (Oryza sativa)
Experiment: cryo-EM structure; OsBOR3 (1 mg/mL) in 20 mM Tris (pH 7.5), 150 mM NaCl, 0.75x CMC LMNG on Quantifoil grids; 116,140 particles; 3D refinement with C2 symmetry imposed; 5-6 Å

stoichiometry N: 2
Substance: OsBOR3_(∆1–642) (domain or fragment)

— paper PMC8192573
